To fix the notation:
B1: PRT-314 (protein)
chain: MQITSVWTKGVTPLTPEQFRENNEDVIHAPYLAHQGWYDITKAFDGKDNLLCGAATAGNMLHWWFDQNKTEIEAYLSKHPEKQKIIFGNQELFDLKAAIDTKDSQTNSQLFDYFRDKAFPNLSARQLGVMPDLVLDMFINGYYLNVGKTQSTDVNRPYQDKDKRGGIFDAVFTRGDQTTLLTARHDLKNKGLNDISTIIKQELTEGRALALSHTYANVSISHVINLWGADFNAEGELEAIYVTDSDANPSIGMKKYFVGRNAHGHVAISAKKIEGENIGAQVLGLFTLSSGKDQWQKLS
B2: PRT-322 (protein)
chain: MTITSVWTKGVTPPTPEDFRENNEDVLHAPYVANQGWYDITKTFDGKDNLLCGAATAGNMLHWWFDQNKEEIERYLKKHPEKQKIIFNNQELFDVKAAIDTKDSQTNSKLFDYFRDKAFPNLSARQLGVMPDLVLDMFINGYYLNLGKTQSTDVNRPYQDKDKRGGIFDAVFTRGDQTTLLTARHDLKNKGLNEISDLIKQELTEGKALALSHTYANVRINHVINLWGADFDAEGNLIAIYVTDSDANASIGMKKYFVGRNANGKVAISAKKIEGDNIGAQVLGLFTLSTGQDQWQKLS
B3: PRT-330 (protein)
chain: MTITSVWTKGVTPPTPEDFRENNEDVLHAPYVANQGWYDITKTFDGKDNLLCGAATAGNMLHWWFDQNKEEIERYLKKHPEKQKIIFGNQELFDVKAAIDTKDSQTNSKLFDYFRDKAFPGLSARQLGVFPDLVLDMFINGYYLNLGKTQSTDVNRPYQDKDKRGGIFDAVFTRGVQTTLLTARHDLKNKGLNEISDLIKQELTEGKALALSHTYANVRINHVINLWGADFDAEGNLIAIYVTDSDANASIGMKKYFVGRNANGKVAISAKKIEGDNIGAQVLGLFTLSTGQDQWQKLS
B4: PRT-282 (protein)
chain: MVTSVWTKGVTPPAKFTQGEDVFHAPYVANQGWYDITKTFNGKDDLLCGAATAGNMLHWWFDQNKEKIEAYLKKHPDKQKIMFGDQELLDVRKVINTKGDQTNSELFNYFRDKAFPNLSARRIGVMPDLVLDMFINGYYLNVYKTQTTDVNRTYQEKDRRGGIFDAVFTRGDQSKLLTSRHDFKEKNLKEISDLIKKELTEGKALGLSHTYANVRLNHVINLWGADFDSNGNLKAIYVTDSDSNASIGMKKYFVGVNSSGKVAISAKEIKEDNIGAQVLGLFTLSTGQDSWNQTN
B5: PRT-25 (protein)
chain: MANQEIRYSEVTPYHVTSVWTKGVTPPANFTQGEDVFHAPYVANQGWYDITKTFNGKDDLLCGAATAGNMLHWWFDQNKDQIERYLKEHPEKQKINFNGEQMFDVKEAIDTKDSQTDSKLFEYFKEKAFPYLSTKHLGVFPDHVIDMFINGYRLSLTNHGPTPVKEGSKDPRGGIFDAVFTRGDQSKLLTSRHDFKEKNLKEISDLIKQELTEGKALGLSHTYANVRINHVINLWGADFDSNGNLEAIYVTDSDSNASIGMKKYFVGVNSAGKVAISAKEIEEDNIGAQVLGLFTLSTGQDIWNQTN
B6: PRT-27 (protein)
chain: MANQEIRYSEVTPYHVTSVWTKGVTPPANFTQGEDVFHAPYVANQGWYDITKTFNGKDDLLCGAATAGNMLHWWFDQNKDQIKRYLEEHPEKQKINFNGEQMFDVKEAIDTKNHQTDSKLFEYFKEKAFPYLSTKHLGVFPDHVIDMFINGYRLSLTNHGPTPVKEGSKDPRGGIFDAVFTRGDQSKLLTSRHDFKEKNLKEISDLIKKELTEGKALGLSHTYANVRINHVINLWGADFDSNGNLEAIYVTDSDSNASIGMKKYFVGVNSAGKVAISAKEIKEDNIGAQVLGLFTLSTGQDSWNQTN
B7: PRT-28 (protein)
chain: MANQEIRYSEVTPYHVTSVWTKGVTPPANFTQGEDVFHAPYVANQGWYDITKTFNGKDDLLCGAATAGNMLHWWFDQNKDQIKRYLEEHPEKQKINFNGEQMFDVKEAIDTKDHQLDSKLFEYFKEKAFPYLSTKHLGVFPDHVLDMFINGYRLSLTNHGPTPVKEGSKDPRGGIFDAVFTRGDQSKLLTSRHDFKEKTLKEISDLIKKELTEGKALGLSHTYANVRINHVINLWGADFDSNGNLKAIYVTDSDSNASIGMKKYFVGVNSAGKVAISAKEIKEDNIGAQVLGLFTLSTGQDSWNQTN
B8: PRT-26 (protein)
chain: MANQEIRYSEVTPYHVTSVWTKGVTPPANFTQGEDVFHAPYVANQGWYDITKTFNGKDDLLCGAATAGNMLHWWFDQNKDQIERYLKEHPEKQKINFNGEQMFDVKEAIDTKDSQTDSKLFEYFKEKAFPYLSTKHLGVFPDHVLDMFINGYRLSLTNHGPTPVKEGSKDPRGGIFDAVFTRGDQSKLLTSRHDFKEKTLKEISDLIKQELTEGKALGLSHTYANVRINHVINLWGADFDSEGNLKAIYVTDSDSNASIGMKKYFVGVNSAGKVAISAKEIKEDNIGAQVLGLFTLSTGQDIWNQTN
B9: PRT-290 (protein)
chain: MVTSVWTKGVTPPADFTQGEDVFHAPYVANQGWYDITKTFNGKDDLLCGAATAGNMLHWWFDQNKEYIEAYLKKHPEKQKIMFGDQELLDVRKAINTKGSQKNSELFNYFRDKAFPNLSARRLGVMPDLVLDMFINGYYLNVTKTQTTDVNRTYQEKDKRGGIFDAVFTRGDQSKLLTSRHDFKEKGLKEISDLIKQELTEGKALGLSHTYANVRIGHVINLWGADFDSDGNLKAIYVTDSDSNASIGMKKYFVGVNSSGKVAISAKEIKEDNIGAQVLGLFTLSTGQDIWNQTN
B10: PRT-306 (protein)
chain: MVTSVWTKGVTPPTDFIKGEDVFHAPYDAGQGWYDITKEFNGKDDLLCGAATAGNMLHWWFDQNKEYIEAYLKKHPEKQKIMFGDQELLDVRKAINTKGSQKNSELFNYFRDKAFPNLSARRLGVMPDLVLDMFINGYYLNVTKTQTTDVNRTYQEKDKRGGIFDAVFTRGDQSKLLTSRHDFKEKGLKEISDLIKQELTEGKALGLSHTYANVRIGHVINLWGADFDSDGNLKAIYVTDSDSNASIGMKKYGVGVNSAGKVAISAKEIKEDNIGAQVLGLFTLSTGQDIWNQTN
B11: PRT-298 (protein)
chain: MVTSVWTKGVTPPTDFIKGEDVFHAPYKAGQGWYDITKTFNGKDDLLCGAATAGNMLHWWFDQNKEYIEAYLKKHPEKQKIMFGDQELLDVRKAINTKGSQKNSELFNYFRDKAFPNLSARRLGVMPDLVLDMFINGYYLNVTKTQTTDVNRTYQEKDKRGGIFDAVFTRGDQSKLLTSRHDFKEKGLKEISDLIKQELTEGKALGLSHTYANVGINHVINLWGADFDSDGNLKAIYVTDSDSNASIGMKKYFVGVNSSGKVAISAKEIKEDNIGAQVLGLFTLSTGQDIWNQTN
B12: PRT-266 (protein)
chain: MVTSVWTKGVTPPTDFIYGEDVLHAPYKAGQGWYDITKTFNGKDDLLCGAATAGNMLHWWFDQNKEQIENYLKKHPEKQKINFNGEQMFDVKEAIDTKDSQLDSKLFEYFKEKAFPNLSTKHLGVFPDHVIDMFINGYRLSLLNHGPTPVKRGSKDPRGGIFDAVFTRGDQSKLLTNRHDLKNKTLKEISDLIKQELTEGKALGISHTYANVRINHVINLWGADFDAEGNLEAIYVTDSDSNASIGMKKYFVGVNSSGKVAISAKEIEEDNIGAQVLGLFTLSTGQDIWNQTN
B13: PRT-274 (protein)
chain: MVTSVWTKGVTPPTDFIYGEDVLHAPYKAGQGWYDITKTFNGKDNLLCGAATAGNMLHWWFDQNKEQIENYLKKHPEKQKIIFNNQELFDLKAAIDTKDSQLDSKLFDYFKEKAFPNLSTKHLGVFPDHVIDMFINGYRLSLLNHGPTPVKRGSKDKRGGIFDAVFTRGVQSKLLTNRHDLKNKTLKEISDLIKQELTEGKALGISHTYANVRINHVINLWGADFDAEGNLEAIYVTDSDTNPSIGMKKYFVGVNSSGKVAISAKEIEEDNIGAQVLGLFTLSTGQDIWNQTN

For this data set, the target named is pooled human IgG.
In turn, B1 returned an Enzyme Activity Endpoint Assay (purified): Fab'2 of 599 ng/µL, an Enzyme Activity Endpoint Assay (purified): Fc of 286 ng/µL, an Enzyme Activity Endpoint Assay (purified): IgG of 101 ng/µL and an Enzyme Activity Endpoint Assay (purified): scIgG of 174 ng/µL.

B2 gave an Enzyme Activity Endpoint Assay (purified): Fab'2 of 506 ng/µL, an Enzyme Activity Endpoint Assay (purified): Fc of 381 ng/µL, an Enzyme Activity Endpoint Assay (purified): IgG of 387 ng/µL and an Enzyme Activity Endpoint Assay (purified): scIgG of 0 ng/µL.

The protein B3 returned an Enzyme Activity Endpoint Assay (purified): Fab'2 of 493 ng/µL, an Enzyme Activity Endpoint Assay (purified): Fc of 369 ng/µL, an Enzyme Activity Endpoint Assay (purified): IgG of 352 ng/µL and an Enzyme Activity Endpoint Assay (purified): scIgG of 0 ng/µL.

Take B4: the Enzyme Activity Endpoint Assay (purified): Fab'2 amounted to 69 ng/µL, the Enzyme Activity Endpoint Assay (purified): Fc worked out at 150 ng/µL, the Enzyme Activity Endpoint Assay (purified): IgG worked out at 34 ng/µL and the Enzyme Activity Endpoint Assay (purified): scIgG is 413 ng/µL.

With B5, the Enzyme Activity Endpoint Assay: Fab′2 amounted to 56 ng/µL, the Enzyme Activity Endpoint Assay: Fc worked out at 123 ng/µL, the Enzyme Activity Endpoint Assay: IgG was 20 ng/µL and the Enzyme Activity Endpoint Assay: scIgG stood at 0 ng/µL.

The protein B6 registered an Enzyme Activity Endpoint Assay: Fab′2 of 44 ng/µL, an Enzyme Activity Endpoint Assay: Fc of 112 ng/µL, an Enzyme Activity Endpoint Assay: IgG of 14 ng/µL and an Enzyme Activity Endpoint Assay: scIgG of 13 ng/µL.

In turn, B7 displayed an Enzyme Activity Endpoint Assay: Fab′2 of 16 ng/µL, an Enzyme Activity Endpoint Assay: Fc of 89 ng/µL, an Enzyme Activity Endpoint Assay: IgG of 14 ng/µL and an Enzyme Activity Endpoint Assay: scIgG of 44 ng/µL.

On to B8, for which the Enzyme Activity Endpoint Assay: Fab′2 amounted to 40 ng/µL, the Enzyme Activity Endpoint Assay: Fc came to 101 ng/µL, the Enzyme Activity Endpoint Assay: IgG amounted to 11 ng/µL and the Enzyme Activity Endpoint Assay: scIgG came out at 14 ng/µL.

B9 displayed an Enzyme Activity Endpoint Assay (purified): Fab'2 of 191 ng/µL, an Enzyme Activity Endpoint Assay (purified): Fc of 151 ng/µL, an Enzyme Activity Endpoint Assay (purified): IgG of 179 ng/µL and an Enzyme Activity Endpoint Assay (purified): scIgG of 0 ng/µL.

Protein B10 had an Enzyme Activity Endpoint Assay (purified): Fab'2 of 467 ng/µL, an Enzyme Activity Endpoint Assay (purified): Fc of 336 ng/µL, an Enzyme Activity Endpoint Assay (purified): IgG of 341 ng/µL and an Enzyme Activity Endpoint Assay (purified): scIgG of 0 ng/µL.

For B11, the Enzyme Activity Endpoint Assay (purified): Fab'2 stood at 494 ng/µL, the Enzyme Activity Endpoint Assay (purified): Fc came to 240 ng/µL, the Enzyme Activity Endpoint Assay (purified): IgG amounted to 147 ng/µL and the Enzyme Activity Endpoint Assay (purified): scIgG came to 35 ng/µL.

In turn, B12 gave an Enzyme Activity Endpoint Assay (purified): Fab'2 of 698 ng/µL, an Enzyme Activity Endpoint Assay (purified): Fc of 401 ng/µL, an Enzyme Activity Endpoint Assay (purified): IgG of 0 ng/µL and an Enzyme Activity Endpoint Assay (purified): scIgG of 0 ng/µL.

As to B13, the Enzyme Activity Endpoint Assay (purified): Fab'2 was determined as 1040 ng/µL, the Enzyme Activity Endpoint Assay (purified): Fc was determined as 425 ng/µL, the Enzyme Activity Endpoint Assay (purified): IgG stood at 0 ng/µL and the Enzyme Activity Endpoint Assay (purified): scIgG was found to be 0 ng/µL.
